According to article PMC7072561:

Conditions: ubiquitination at K63

## ubiquitin (HA-tagged): ubiquitin K63R
  other: decreases
